Key:
[1] = molecular target: H-GST-DEVD/S-mLIF, P09056
[2] = molecular target: the 20 fusion proteins of the formula H-GST-DEVD/X-mLIF, where X is any of the possible 20 amino acids
[3] = molecular target: fusion protein of GST and mLIF with only the DEVD site in the linker (L0: DEVD), P09056
[4] = molecular target: fusion protein of GST and mLIF where the DEVD site is preceded by a GPGS sequence (L1: GPGSDEVD), P09056

Row | Protein | amount of enzyme sufficient to process 10 microgram of fusion protein [1] | time needed for processing [1] | cleavage of P1′ variants (gel, FIG. 6) [2] | processing yield (densitometric scanning of the gel) [3] | amount of enzyme sufficient to process 10 microgram of fusion protein (H-GST-DEVD/mLIF, P09056) | percent of fusion protein processed (50 ng enzyme, 45 minutes) (H-GST-DEVD/mLIF, P09056) | time needed for processing (H-GST-DEVD/mLIF, P09056) | percent of fusion product processed (densitometric scanning of the gel) [4] | processing of the fusion protein (gel, FIG. 3b) (GST-C-hIFNα) | percent of fusion protein processed (2 microgram enzyme on 10 microgram substrate) (MBP-L0-hIFNalpha) | efficiency of cleavage (H-GST-DEVD/mLIF, P09056)
1 | murine Caspase-3 (protein) chain 1: SGIYLDSSYKMDYPEMGICIIINNKNFHKSTGMSSRSGTDVDAANLRETFMGLKYQVRNKNDLTREDILELMDSVSKEDHSKRSSFVCVILSHGDEGVIYGTNGPVELKKLTSFFRGDYCRSLTGKPKLFIIQACRGTELDCGIETD chain 2: SGTDEEMACQKIPVEADFLYAYSTAPGYYSWRNSKDGSWFIQSLCSMLKLYAHKLEFMHILTRVNRKVATEFESFSLDSTFHAKKQIPCIVSMLTKELYFYH | as little as 50 ng of enzyme is sufficient to process 10 microgram of protein | the reaction was finished after 45 minutes when using Caspase-3 | all amino acids in the P1′ position could be processed by Caspase-3 | only 10% processing yield was seen under these conditions when using the L0 linker | as little as 50 ng of enzyme is sufficient to process 10 microgram of protein | An amount of 50 ng is sufficient to process >90% of 10 microgram of a GST-mLIF fusion protein | the reaction was finished after 45 minutes when using Caspase-3 | 90% of the fusion product containing L1 was processed | Caspase-3 on the other hand gave a high yield of processing even after only 45 minutes of incubation | 2 microgram of caspase 3 is needed to process only 50% of 10 microgram of MBP-L0-hIFNalpha | 
2 | murine caspase 7 (protein) chain 1: AKPDRSSIISSILLKKKRNASAGPVRTGRDRVPTYLYRMDFQKMGKCIIINNKNFDKATGMDVRNGTDKDAGALFKCFQNLGFEVTVHNDCSCAKMQDLLRKASEEDHSNSACFACVLLSHGEEDLIYGKDGVTPIKDLTAHFRGDRCKTLLEKPKLFFIQACRGTELDDGIQAD chain 2: ANPRNKIPVEADFLFAYSTVPGYYSWRNPGKGSWFVQALCSILNEHGKDLEIMQILTRVNDRVARHFESQSDDPRFNEKKQIPCMVSMLTKELYFSR |  |  |  |  |  |  |  |  |  |  | the murine caspase 7 was not as active as the murine caspase 3 and more enzyme needed to be added to obtain the same efficiency of cleavage
